Our source for the Kd values is article PMC8956657 (2022).

The target of assay [1] is IMPα5 lacking the IBB domain (residues 73-538) (UniProt P52294 73-538). Nature of the assay: FP.
Assay [2] has as its target IMPα2 lacking the IBB domain (residues 70-529) (UniProt P52293 70-529). Nature of the assay: FP.

Where no end group is shown, it is not given here.

Chain of IMPα5 lacking the IBB domain (residues 73-538) (P52294 73-538): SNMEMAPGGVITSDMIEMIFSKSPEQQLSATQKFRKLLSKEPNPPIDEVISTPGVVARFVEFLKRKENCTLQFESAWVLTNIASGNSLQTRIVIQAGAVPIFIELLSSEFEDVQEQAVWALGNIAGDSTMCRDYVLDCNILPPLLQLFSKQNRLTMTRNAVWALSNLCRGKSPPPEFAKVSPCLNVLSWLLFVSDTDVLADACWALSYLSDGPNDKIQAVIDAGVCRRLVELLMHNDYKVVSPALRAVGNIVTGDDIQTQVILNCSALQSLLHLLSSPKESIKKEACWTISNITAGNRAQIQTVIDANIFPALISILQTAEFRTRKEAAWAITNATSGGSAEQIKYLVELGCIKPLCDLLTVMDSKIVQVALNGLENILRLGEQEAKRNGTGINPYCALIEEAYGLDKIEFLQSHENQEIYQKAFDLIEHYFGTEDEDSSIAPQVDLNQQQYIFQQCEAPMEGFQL

By Kd is commonly meant the concentration at which binding is half-saturated. On to RKARKRSHSPTKKLRYVKRRF (also: FITC-tagged) [FITC-tagged MERS-CoV ORF4b NLS peptide (residues 19-39), wild type], for which the Kd in assay [1] came out at 0.0096 µM; in assay [2], 0.0113 µM.
